23 sequences from the DeepSol protein solubility set can be followed below.

The series is described as follows: soluble on expression in E. coli; label from the status in PepcDB or PDB records.
For “MYLIEPIRNGKRITDGAVALAMQVYVQENLFLDDDILFPYYCDPKVEIGKFQNAVVETNQEYLKEHHIPVVRRDTGGGAVYVDSGAVNICYLINDNGIFGDFKRTYQPAIEALHHLGATEVEMSGRNDLVIDGKKVSGAAMTIANGRVYGGYSLLLDVDFEAMEKALKPNRKKIESKGIRSVRSRVGNIREHLAPQYQGITIEEFKDLMVCQLLQIETISQAKRYDLTEKDWQQIDALTERKYHNWEWNYGNAPQYRYHRDGRFTGGTVDIHLDIKKGYIAACRIYGDFFGKADIAELEGHLIGTRMEKEDVLATLNAIDLAPYLGAITAEELGDLIFS”, the “soluble on expression in E. coli” value is listed as “soluble”.
“MYLPAHFAETRPEELARIIRAHPLGMLVTQDAQGLDADHLPFEFDPDAGPHGTLIAHVARANTLWQRCPDGSAVMVVFRGAEGYISPNWYPSKHEAHRQVPTWNYEVVHAHGTLAVRDDERFVRGVVARLTRRHEAGEPRPWKMTDSTPEYIDSMLRNIVGIEVAITSLVGKRKLSQNKDERDRLGAVQALQARGQDTLAQSMARAELEHHHHHH”: the “soluble on expression in E. coli” value is given as “not soluble”.
Take “MYNISFTPDRPLTYHLEDDQSLARLSLVPGRGGLVTEWTVQGQPILYFDRERFQDPSLSVRGGIPILFPICGNLPQDQFNHAGKSYRLKQHGFARDLPWEVIGQQTQDNARLDLRLSHNDATLEAFPFAFELVFSYQLQGHSLRIEQRIANLGDQRMPFSLGFHPYFFCREKLGITLAIPANDYLDQKTGDCHGYDGQLNLTSPELDLAFTQISQPRAHFIDPDRNLKIEVSFSELYQTLVLWTVAGKDYLCLEPWSGPRNALNSGEQLAWVEPYSSRSAWVNFQVSTELEHHHHHH”: the “soluble on expression in E. coli” value was “soluble”.
Regarding “MYRFLSGIKVVEIAGLAPVPHCGMMLADFGADVTVIDKKNPAIEQRLNRGKTMKQLDLKNPEDIKKVRDLCQTSDVLLDPYRPGTLEKMGLDPSTLWNNNKGLIICKISGYGQTGRMSQETGHDINYVALSGMLPTFSGVNATRPWPPANMLADFAGGGLSAAFGILSAIYARSHNGGKGCLLDCSMTEGVAYLSSFVQHYYDQPNLFTDKYALFSGECPIYRTYKTKDDKFVAVGAVEPKFYQNLFKLLNVDGRDLFVNPGKITEDLESRFLQKTRDKWANIFKGQECCVTPVLDIHEVGSYGQHVDRNSFTKTSSNWIANPSPRVWTQDELAALSSKK”, the “soluble on expression in E. coli” value is “not soluble”.
Next, “MYRISQLAELVGLSRTTLLYYEKLGLIKGERLNNGYRQYSEKDAQRLVLLQNLQAGGLTLKECQACLDAKVNREVLVERLEQLDQEIEQKQNSRQLLAALLGESSLTDWHESLDQLAPEAHIEWLMKQGFDEKQAMRLKWLSKDMNEHERYMQDFDLIFKELERWGPGSESDTLKALQKVPNKSMTLLEIGCGQGIATELFARHTDAMITAVDNEEFALKHLMEKMQQNGLEDKITTVCADMAKMPFETKSFDLIWSEGSAYIMGVQNALKAWKPLLSEDGVLVVSDLVWSTDKPSEGALSFWKKEYPDMVSVSERIKHAQQAGYEVIEHFSLSDAAWEAYYHPLIERLDTLKDKLIDSPVLIDFENEITAFKQRANEFDYEIFILRSR”: “not soluble”; “MYRSFFYPTRLALLAVGRNFMPMAWWMPASKEPFRFLLAVDRKNHTLSLLRELSEAALAFYPWEERAWVVRAGYLSGGRVDKARRLGVPLRPACCLAHTQVPEGALAVYEMRVSEWPWDGDHALFMGEVVHVEGSAEAKERPILFLGFRDFATLGERWRFRPGGAKPLPREERGKP”: “soluble”.
For “MYRVFVFDLDGTLLNDNLEISEKDRRNIEKLSRKCYVVFASGRMLVSTLNVEKKYFKRTFPTIAYNGAIVYLPEEGVILNEKIPPEVAKDIIEYIKPLNVHWQAYIDDVLYSEKDNEEIKSYARHSNVDYRVEPNLSELVSKMGTTKLLLIDTPERLDELKEILSERFKDVVKVFKSFPTYLEIVPKNVDKGKALRFLRERMNWKKEEIVVFGDNENDLFMFEEAGLRVAMENAIEKVKEASDIVTLTNNDSGVSYVLERISTDCLDE”, the “soluble on expression in E. coli” value is “soluble”.
Take “MYRVLLSGAAGSGKGTIARMLVREFEPLGFNYFAAGDFIRDHIARGTEFGVRAQSFLNKGEHVPDSILNGAILAEMLKAGPRVVLDGYPRNMSQLKMVEEQAPLNLIVELKVPRKVLIDRLSKQLVHPASGRAYNLEVNPPKEEGKDDITGEPLFKRSTDQLEVARRRLEVYDKTENKVLDYYKKQNKCITMSGESSKAVFESVAEVMRRDLLTTTPRTAYA”: the “soluble on expression in E. coli” value is on record as “not soluble”.
In the case of “MYSISFQEDSLLPRERLAKEGVEALSNQELLAILLRTGTRQASVFEIAQKVLNNLSSLTDLKKMTLQELQSLSGIGRVKAIELQAMIELGHRIHKHETLEMESILSSQKLAKKMQQELGDKKQEHLVALYLNTQNQIIHQQTIFIGSVTRSIAEPREILHYAIKHMATSLILVHNHPSGAVAPSQNDDHVTKLVKEACELMGIVLLDHLIVSHSNYFSYREKTDLI”, the “soluble on expression in E. coli” value is reported as “not soluble”.
On to “MYVALWYKHGKPIHGRSWNNGGVVECSFPYKEAELTTKQQLEGQIQVLQYVGDHNNQGFWYEWIKYKDRIEKIDDKHQLVRCGDSFPIFWKRKEGNLLGYVDNKTEEGWFSFNGKVIKQVGPQLNDMYIITRNCVGGPPYCECENCPKLPPPPPIPPPGPPPPRVMHDEWIDIREGDPWPTRKLVKALDKSLDTLPGVSADQYVALWYMQGEPVMGRVWNEGGKVAANFSWFNNEYCKNVGSIQLLVRLGPHVVGYEYGWIPFPEAANFDAGKIWKPVHVNNHKGDISVGVVNLPGGKQILAKVDVRNESYGYGYQGKEHSARGPACASSVTVLCRKALPGYQLDG”, for which the “soluble on expression in E. coli” value is “not soluble”.
With “MYVQGKIGLDQLAEAERLHATLCREVQQRLDIRLRAHRAVLDELNERLADKLFCNFSVFQSIPDAWAIDQIFPVMPLQRLGEEPTRRAVIQDMTCDSDGRINAYIDRQSIENTLRMHAPAPGEPYLIGFFLVGAYQEILGDMHNLFGDTHSVDVELDGAGGYTFTHTRRGDGADDLLRYVHIDPDELERLEHHHHHH”, the “soluble on expression in E. coli” value is “not soluble”.
Take “MYYQQALMRSTVKSSVSLGGIVKYSEQFSSNDAIMSGCLPSNPWITDDTQFWDLNAKLVEIPTKMRVERWAFNFSELIRDPKGRQSFQYFLKKEFSGENLGFWEACEDLKYGDQSKVKEKAEEIYKLFLAPGARRWINIDGKTMDITVKGLKHPHRYVLDAAQTHIYMLMKKDSYARYLKSPIYKDMQAKAIDPQETTKKSSTLPFMRRHLRSSPSPVILRQLEEEAKAREAANTVDITQPGQHMAPSPHLTVYTGTCMPPSPSSPFSSSCRSPRKPFASPSRFIRRPTICPSPILVVLDSSSGLEQKGECSWSGANPGPSVTDSSEASRDTSWTRSRPRAPLKARMALSFSRFLRRGCLASPVFARVSPKCPAVSHGRVQPLGDVGQQLPRLKSKRVANFFQIKMDVPTGSGTCLMDSEDAGTGESGDRATEKEVICPWESL”: the “soluble on expression in E. coli” value is recorded as “not soluble”.
In the case of “NAKKPTMQLSDSGVDILIGSASYEGGELVLPTSITNQSSQSVIQVEVEVQVFDMSGKQLAKEKVTVWQSIKRMADTYLRPQQAEQGKSIKLAVPQSQQYQFSAKVLEVKTR”, the “soluble on expression in E. coli” value is “not soluble”.
“NANDNVVIVGTGLAGVEVAFGLRASGWEGNIRLVGDATVIPHHLPPLSKAYLAGKATAESLYLRTPDAYAAQNIQLLGGTQVTAINRDRQQVILSDGRALDYDRLVLATGGRPRPLPVASGAVGKANNFRYLRTLEDAECIRRQLIADNRLVVIGGGYIGLEVAATAIKANMHVTLLDTAARVLERVTAPPVSAFYEHLHREAGVDIRTGTQVCGFEMSTDQQKVTAVLCEDGTRLPADLVIAGIGLIPNCELASAAGLQVDNGIVINEHMQTSDPLIMAVGDCARFHSQLYDRWVRIESVPNALEQARKIAAILCGKVPRDEAAPWFWSDQYEIGLKMVGLSEGYDRIIVRGSLAQPDFSVFYLQGDRVLAVDTVNRPVEFNQSKQIITDRLPVEPNLLGDESVPLKEIIAAAKAELSSAKAELSSAPRHHHHHH”: the “soluble on expression in E. coli” value is reported as “soluble”.
Regarding “NARTVVMVQFRDIEQETSMRRDLTRTEADLTRTEARLAAFLRNMAEGILVLDDDSRITYASEAASELLKVPVASLVGERFTEFCRAGQSRESVRRALELTTADGGSQSLRYEVELTPGERRWHAGSCQHIGIE”, the “soluble on expression in E. coli” value is given as “not soluble”.
In the case of “NCRLFIGGIPKMKKREEILEEIAKVTEGVLDVIVYASAADKMKNRGFAFVEYESHRAAAMARRKLMPGRIQLWGHQIAVDWAEPEIDVDEDVMETV”, the “soluble on expression in E. coli” value was “soluble”.
“NDPDADRFAVAARKADGEYQMLTGDQVGSLFGHYLLSQTDAHRQLVGNTIVSSSLLSKIAAAHGARYYQTLTGFKWLTNVAMQEQTEQHQFLFAYEEALGYTIGSTVWDKDGLSALVAFAQLAAELNAQGKTVWDQLEALYRQHGLHVN”: the “soluble on expression in E. coli” value is “not soluble”.
On to “NENFRWKTAVNMSMNRNKVVSLHKDYKSFRYGSEGFSMAYDMWVKEGGKLGDIYGNGFERDENGKIKLNETGNPIKVTGNNTLLGNANPDALLGWSNTFTYKGFTLYFLIDARIGGDVMSLTQAHLDAMGVSKESGESRDRGYVEYEGIQFKDVPNFYGTVGGRNGISEYYMYDATNVRLRELTLGYSFPETLLAKTKFIKGLDLTLVARNLFFLYKDAPFDPDATLSVGNTLQGVDVFGMPTTRNIGFNVKFTF”, for which the “soluble on expression in E. coli” value is on record as “not soluble”.
Take “NHPTRPCTCAPGQVEKYLSRISGPLLDRIDIQVEITPVPFEKISDSRPAESSEKIRQRVVAAREIQSKRFADYSGVHCNAQMDDKLMNRYALPDEKGLQRLRTAMERFDLSARAYGRILKVARTIADLAGSEDVGGEHIAEAIGYRNLDRENWGKA”: the “soluble on expression in E. coli” value is reported as “not soluble”.
Regarding “NILKALLPTSTAGSLPKPAWLAEPETLWSPWKLQGEELTEGKHDALRLSLQDQQQAGIDIVSDGEQTRQHFVTTFIEHLNGVDFEKRKTVKIRDRYDASVPTVVGPVSRQKSVFVEDAKFLRQQTKQPIKWALPGPMTMIDTLYDDHYKSREKLAWEFAKILNQEAKELEAAGVDIIQFDEPAFNVFFDEVNDWGIACLERAIEGLNCETAVHICYGYGIKANTDWKKTLGSEWRQYEEAFPKLQKSNIDIISLECHNSHVPMELLELIRGKKVMVGAIDVASNTIETPEEVANTLRKALKFVDADKLYPCTNCGMAPLSHQVARGKLNALSAGAEIVRRELST”, the “soluble on expression in E. coli” value is “not soluble”.
Take “NILTDGAIKKLTLNKLFERYMSTRELKESTRANYLKTWENRVKDEIGNIKVIQILPSHIKSFYSKLSKAGYAYSTIKFINNMIYPALEMAVDDDIIRKNPAKFSISDYGRQAEERIALTVLQQEKMLEFVKNNQVYNTYYPMLRIMLGTGVRCGELIGLTWEDVDVRTKAVSIDHQLIYKDLGDGYKFHISTPKTDSGIRTIPMTSDVQRAFEEQKKLNFMLQKGKDVEIDGYKGFIFMAKSGRPLMPSAINNILYNIVDAYNKKEVQIAKTEHRNAELLPTVSAHIMRHTACTRMAEKRMDVKVLQYIMGHAHIDVTMDVYNHVSEMSRIESEITRLESVAIS”: the “soluble on expression in E. coli” value is given as “not soluble”.
Next, “NLPDVQASKPSIAINLTRVGVTNMKKLVEIKRKDKRPIVLISTFDVFVDLPSDRKGANLSRNFEAVDEVLEKVLSTPVYEIEQLCSDIAHNLLGRHEYANQAEVRMKSEYMIRRASPSTGIKCQEVVNIFAEASAVRGNGDRDYFDVKKLIGAEVVGMTACPCAQEIMRDKAATELANLGVERDKIIKFLEKVPMATHNQRGRGIISIKVAHDFDVSLESIIKIIERSMSSSVYEVLKRSDEKVVVETAHMNPKFVEDCVRAMADNVVKEFPNLPDNAVITIKQTNEESI”: “not soluble”; NLSVYNVQATNIPPKETLVYTKQTQTT: “soluble”.
